Data on 4 molecules can be found in patent US8735097B2, “Human antibiotic proteins” (Planton GmbH, priority 1999, dated 2014).

Where no end group is shown, it is not given here.

In one data set the test system is Staph aureus. Description: MIC, antimicrobial activity against Staph aureus. It counts as cell-based, Staphylococcus aureus. An excerpt: (§1) The following microorganisms were used for the tests: • Escherichia coli (E. coli)—ATCC (American Type Culture Collection) No. 11303 • Pseudomonas aeruginosa—ATCC No. 15442 • Staphylococcus aureus (clinical isolates from the dermatological hospital of Kiel) • Staphylococcus epidermidis (clinical isolates from the dermatological hospital of Kiel) • Candida albicans (clinical isolates from the dermatological hospital of Kiel)
(§2) The microorganisms were cultivated on Trypticase-soy-broth (TSB) agar plates at 37° C. If they were not needed for a long time, they were stored at 4° C. For the tests, in each case a single colony of the corresponding microorganisms was inoculated in 40 ml of TSB medium and incubated overnight at 37° C. while being shaken (250 rpm). To quantify the microorganisms, the optical density of the overnight cultures was measured at 620 nm (OD620), and the colony number was determined by flattening out corresponding dilution stages.
(§3) To be able to assess the dose-dependent range of action of an antimicrobial or antibiotic protein, a liquid culture testing system was used (cf. Ganz et al., 1985). […]
(§4) These batches were incubated in a 96-hole plate (Becton Dickinson, Heidelberg) for 3 hours at 37° C. while being shaken lightly (150 rpm). […] After 24 to 36 hours of growth, the colonies were counted out.

For data set [1], the system named is E. coli. Description: MIC, antimicrobial activity against E. coli. Format: cell-based, Escherichia coli.
Excerpt: as §1, §2, §3, §4

For data set [2], the system named is E. coli. Put plainly: Liquid culture test, LD90 by counting colony-forming units, E. coli. Format: cell-based, Escherichia coli. The following applies: 3 hours at 37° C., 5·10^4 KBE/ml, 10 mmol sodium phosphate buffer pH 7.4 with 1% TSB. As for the experimental part: (§5) To be able to assess the dose-dependent range of action of an antimicrobial or antibiotic protein, a liquid culture testing system was used (cf. Ganz et al., 1985).
(§6) About 10 μl of a 1×10^7/ml dilution of the corresponding microorganisms in sodium-phosphate buffer (cf. 3.1) was added to 80 μl of sodium-phosphate buffer together with 1.25% TSB medium (v/v). 10 μl of 0.01% acetic acid was added with the corresponding concentrations of the antimicrobial or antibiotic protein (100 μg/ml, 50 μg/ml, 25 μg/ml, 12.5 μg/ml, and 6.25 μg/ml).
(§7) These batches were incubated in a 96-hole plate (Becton Dickinson, Heidelberg) for 3 hours at 37° C. while being shaken lightly (150 rpm). After the incubation time, tenfold dilution series were made from 50 μl of each of the batches with sodium-phosphate buffer and flattened out (100 μl) in each case in 3 parallel lines on TSB-agar plates. After 24 to 36 hours of growth, the colonies were counted out.
SAP-3 was incubated at the indicated concentrations at 37° C. for 3 hours with 5·10^4 KBE/ml (KBE=colony-forming units) of E. coli and Staphylococcus aureus in 100 μl of 10 mmol of sodium phosphate buffer (pH=7.4) together with 1% TSB (TSB=trypticase-soy broth). The antimicrobial activity of SAP-3 was determined by counting out the KBE on the subsequent day. 100 μl of the respective batches in tenfold dilution stages was flattened out on TSB plates in advance. […]

Data set [3] has as its system Staphylococcus aureus. Description: Liquid culture test, LD90 by counting colony-forming units, Staphylococcus aureus. Format: cell-based. The following applies: 3 hours at 37° C., 10 mmol sodium phosphate buffer pH 7.4 with 1% TSB. On the procedure: as §5, §6, §4
SAP-3 was incubated at the indicated concentrations at 37° C. for 3 hours with 5·10^4 KBE/ml (KBE=colony-forming units) of E. coli and Staphylococcus aureus in 100 μl of 10 mmol of sodium phosphate buffer (pH=7.4) together with 1% TSB (TSB=trypticase-soy broth). The antimicrobial activity of SAP-3 was determined by counting out the KBE on the subsequent day. […]
SAP-2 was incubated at the indicated concentrations at 37° C. for 3 hours with 1·10^5 KBE/ml of the respective microorganisms in 100 μl of 10 mmol of sodium phosphate buffer (pH=7.4) together with 1% TSB. The antimicrobial activity of SAP-2 was determined by counting out the KBE on the subsequent day. […]

The subject of a further data set is gram-negative bacteria. The following applies: cited from earlier work.
The next data set concerns gram-positive bacteria. The conditions noted are these: cited from earlier work.
The subject of data set [4] is E. coli. The following applies: cited from earlier work.
The next data set deals with Klebsiella pneumoniae. The conditions noted are these: cited from earlier work.
Data set [5] has as its system Staphylococcus aureus. The conditions noted are these: cited from earlier work.
Data set [6] concerns Pseudomonas aeruginosa. The following applies: cited from earlier work.
For data set [7], the system named is Candida albicans. The conditions noted are these: cited from earlier work.
The test system of the next data set is human RNA. Description: RNase activity. It counts as biochemical. The conditions noted are these: 1.2 μg of SAP-2, one hour at 37° C. On the procedure:
RNase activity: 1.2 μg of SAP-2 digested about 5 μg of human RNA in one hour at 37° C.

A further data set concerns propionibacterium acnes. Description: Liquid culture test, LD90 by counting colony-forming units, propionibacterium acnes. Format: cell-based. The conditions noted are these: 3 hours at 37° C., 1·10^5 KBE/ml, 10 mmol sodium phosphate buffer pH 7.4 with 1% TSB. On the procedure: as §5, §6, §7
(§8) SAP-2 was incubated at the indicated concentrations at 37° C. for 3 hours with 1·10^5 KBE/ml of the respective microorganisms in 100 μl of 10 mmol of sodium phosphate buffer (pH=7.4) together with 1% TSB. The antimicrobial activity of SAP-2 was determined by counting out the KBE on the subsequent day. 100 μl of the respective batches was flattened out in tenfold dilution stages on TSB plates in advance. Then, the plates were incubated at 37° C. overnight.

Data set [8] has as its system Pseudomonas aeruginosa. Description: Liquid culture test, LD90 by counting colony-forming units, Pseudomonas aeruginosa. It counts as cell-based. The conditions noted are these: 3 hours at 37° C., 1·10^5 KBE/ml, 10 mmol sodium phosphate buffer pH 7.4 with 1% TSB. As for the experimental part: as §5, §6, §7, §8
In data set [9] the test system is Candida albicans. Put plainly: Liquid culture test, LD90 by counting colony-forming units, Candida albicans. The conditions noted are these: 3 hours at 37° C., 1·10^5 KBE/ml, 10 mmol sodium phosphate buffer pH 7.4 with 1% TSB. Format: cell-based. On the procedure:
as §5, §6, §7, §8

For the molecule “SAP-3: human antibiotic protein of about 6 kDa isolated from lesional psoriasis scales, SEQ ID NO: 2, to be renamed hBD-3 (GIINTLQKYYCRVRGGRCAVLSCLPKEEQIGKCSTRGRKCCRRKK; listed as Homo sapiens)”, in the data set with Staph aureus, the “MIC, antimicrobial activity against Staph aureus” value is less than 100 µg/mL. Further, the “MIC, antimicrobial activity against E. coli” value in the data set on E. coli [1] is less than 20 µg/mL. Also, the “LD90 for E. coli” value in the data set with E. coli [2] lay in the range of 2.5 to 5 µg/mL. The “LD90 for Staphylococcus aureus” value in the data set on Staphylococcus aureus [3] (5·10^4 KBE/ml) was in the range of 2.5 to 5 µg/mL.
Turning to “hBD-2: second β-defensin isolated in humans, 41 amino acids, inducible peptide (GIGDPVTCLKSGAICHPVFCPRRYKQIGTCGLPGTKCCKKP; ends and bridges not checked; cysteine pairing not given here; UniProt O15263 24-64, looked up)”, the “LD90 against gram-negative bacteria” value with gram-negative bacteria is 10 µg/mL. The “LD90 against gram-positive bacteria” value in the data set with gram-positive bacteria is reported as “exceeds 100 μg/ml”.

B1: TAP: first known epithelial β-defensin, which protects the trachea of bovines, 64 amino acids (protein, UniProt P25068 1-64, looked up)
chain: MRLHHLLLALLFLVLSAWSGFTQGVGNPVSCVRNKGICVPIRCPGSMKQIGTCVGRAVKCCRKK
modifications: ends and bridges not checked
notes: first known epithelial β-defensin, which protects the trachea of bovines, 64 amino acids
On to B1, for which the “minimum inhibition concentration against E. coli” value in the data set on E. coli [4] was 12 to 50 µg/mL. In the data set on Klebsiella pneumoniae, the “minimum inhibition concentration against Klebsiella pneumoniae” value is 12 to 50 µg/mL. In the data set with Staphylococcus aureus [5], the “minimum inhibition concentration against Staphylococcus aureus” value is 12 to 50 µg/mL. Besides, the “minimum inhibition concentration against Pseudomonas aeruginosa” value with Pseudomonas aeruginosa [6] is 12 to 50 µg/mL. The “action on Candida albicans” value in the data set with Candida albicans [7] is “destroyed”.

B2: SAP-2: human antibiotic protein of about 20 kDa isolated from lesional psoriasis scales, SEQ ID NO: 1, to be renamed RNase 7 (protein, listed as Homo sapiens)
chain: KPKGMTSSQWFKIQHMQPSPQACNSAMKNINKHTKRCKDLNTFLHEPFSSVAATCQTPKIACKNGDKNCHQSHGPVSLTMCKLTSGKYPNCRYKEKRQNKSYVVACKPPQKKDSQQFHLVPVHLDRVL
In the case of B2, the “MIC, antimicrobial activity against Staph aureus” value in the data set on Staph aureus is less than 100 µg/mL. For the same molecule, the “MIC, antimicrobial activity against E. coli” value in the data set with E. coli [1] was less than 50 µg/mL. In addition, the “RNase activity: human RNA digested” value with human RNA is recorded as “about 5 μg”. Moreover, in the data set on Staphylococcus aureus [3] (1·10^5 KBE/ml), the “LD90 for Staphylococcus aureus” value was 7.5 to 15 µg/mL. Besides, the “LD90 for propionibacterium acnes” value with propionibacterium acnes fell in the range of 4 to 7.5 µg/mL. Moreover, the “LD90 for Pseudomonas aeruginosa” value with Pseudomonas aeruginosa [8] was in the range of 7.5 to 15 µg/mL. In the data set on Candida albicans [9], the “LD90 for Candida albicans” value was in the range of 15 to 30 µg/mL.
